Consider 1 molecule from publication PMC7840946 (Nature Communications, 2021).

In this experiment the target is PstS1 (Rv0934), recombinant, wild type (Mycobacterium tuberculosis H37Rv, UniProt P9WGU1). In words: SPR. The following applies: both partners purified.
Chain of PstS1 (Rv0934), recombinant, wild type (P9WGU1 25-374): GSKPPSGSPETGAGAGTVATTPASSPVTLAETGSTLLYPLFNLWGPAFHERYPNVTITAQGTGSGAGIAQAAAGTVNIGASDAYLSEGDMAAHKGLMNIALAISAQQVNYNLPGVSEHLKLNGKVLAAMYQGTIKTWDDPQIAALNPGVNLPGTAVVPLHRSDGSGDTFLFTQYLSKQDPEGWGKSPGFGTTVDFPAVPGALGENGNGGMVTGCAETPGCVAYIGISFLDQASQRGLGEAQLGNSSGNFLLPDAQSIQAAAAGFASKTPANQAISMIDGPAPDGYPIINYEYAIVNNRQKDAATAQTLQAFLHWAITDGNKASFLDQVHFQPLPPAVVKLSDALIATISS

B1: p4-36gl, predicted germline version of mAb p4-36 (antibody, V domains shown)
VH: EVQLVESGGGLVQPGRSLRLSCTASGFTFGDYAMSWVRQAPGKGLEWVGFIRSKAYGGTTEYAASVKGRFTISRDDSKSIAYLQMNSLKTEDTAVYYCTGPRPYYDSSGYYPYYFDYWGQGTLVTVSS
VL: QSALTQPRSVSGSPGQSVTISCTGTSSDVGGYNYVSWYQQHPGKAPKLMIYDVSKRPSGVPDRFSGSKSGNTASLTISGLQAEDEADYYCCSYAGSYTYVVFGGGTKLTVL
notes: also called germline (gl) version of p4-36
As to B1, the “fold reduction in affinity against the mature p4-36” value turned out to be 4.7 fold.
